{"source": "patent US6437095", "about": "(Hoffmann-La Roche, dated 2002)", "target": "T1, polyionic peptide AlaCysLysLysLysLysLysLysLysLys (ACK8) (also: also used as mixed disulfide with glutathione on Cys (ACK8-SG))", "T1 construct": "Synthetic peptide (Fmoc); also called ACK8-SG (mixed disulfide with glutathione)", "T1 peptide": "ACKKKKKKKK", "experiment": "20 µM ACE8 with the mixed disulfide ACK8-SG, 0 to 1 M NaCl, cation exchange chromatography", "note": "Where no end group is shown, it is not given here.", "data": [{"binder": "ACEEEEEEEE (Synthetic peptide (Fmoc))", "note": "[polyionic peptide AlaCysGluGluGluGluGluGluGluGlu (ACE8)]", "values": [{"measurement": "binding result", "value": "binds"}]}]}
